Source: patent US20140364360A1

Tests used:
CCR5 (human) [1] = target: CCR5 (human) (UniProt P51681); experiment: flow cytometry competition on CD8+ T cells of human PBMC; 5P12-RANTES at 100 ng/ml or greater; competitor antibody 2D7
CCR5 (human) [2] = target: CCR5 (human) (UniProt P51681); experiment: flow cytometry competition on CD8+ T cells of human PBMC; 5P12-RANTES at 0.8 ng/ml or less; competitor antibody 2D7

Chain of UniProt P51681 (P51681 whole entry): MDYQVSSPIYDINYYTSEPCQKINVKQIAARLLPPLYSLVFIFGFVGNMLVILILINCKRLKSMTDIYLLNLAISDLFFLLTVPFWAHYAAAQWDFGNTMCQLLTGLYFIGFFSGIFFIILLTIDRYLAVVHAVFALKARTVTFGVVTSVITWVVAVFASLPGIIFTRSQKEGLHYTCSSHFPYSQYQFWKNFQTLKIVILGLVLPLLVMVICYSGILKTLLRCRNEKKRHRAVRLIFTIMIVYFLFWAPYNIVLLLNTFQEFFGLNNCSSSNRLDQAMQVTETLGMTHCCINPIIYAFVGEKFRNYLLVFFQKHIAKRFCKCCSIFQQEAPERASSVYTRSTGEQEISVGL

2D7% binding (CCR5 (human) [1]): < 1%
2D7% binding (CCR5 (human) [2]): 20%
Substance: 5P12-RANTES (ligand)
